Test results taken from patent publication US20230279105A1 (SINGLE CELL TECHNOLOGY, published 2023).

Each binder was assayed against T1, Human TIM-3 Human Fc tagged protein (human, fluorescently labeled with HiLyte Fluor 555 (sites not given)) (assay: capture slide probed with labeled TIM-3-Fc;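 further: IgG from single CD138-enriched plasma cells, isolated from lymphocytes, immobilized on a derivatized glass slide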).
T1 construct: Bought construct; also called TIM-3 protein tagged with human Fc; ACROBiosystems catalog no: TM3-H5258

binding result	Binder
binds	SCT-Fa098 (antibody, V domains shown, murine IgG) VH: QVQLKQSGAELVRPGTSVKLSCKASGYILTDYYINWVKQRPGQGLEWIARIYPGNGNTYYNEKFKGKATLTAEKSSSTVNMQVSSLTSEDSAVYFCARGGSSDRIYYYAMDYWGQGTSVTVSS VL: DIQMNQSPSSLSASLGDTITITCHASQNINVWLSWYQQKPGNIPKLLIYKASNLHTGVPSRFSGSGSGTGFTLAISSLQPEDIATYYCQQGQSYPLTFGSGTKLALK
binds	SCT-Fa108 (antibody, V domains shown, murine IgG) VH: QVQLKQSGAELVRPGTSVKLSCKASGYTLTDYYINWVKQRPGQGLEWIARIYPGNGNTYYNEKFKGKATLTAEKSSSTVNMQVTSLTSEDSAIYFCARGGSSDRIYYYAMDYWGQGTSVTVSS VL: DIQMNQSPSSLSASLGDTITITCHASQNINVWLSWYQQKPGNIPKLLIYKASNLHTGVPSRFSGSGSGTGFTLTISSLQPEDIATYYCQQGQSYPLTFGSGTKLEVK
binds	SCT-Fa106 (antibody, V domains shown, murine IgG) VH: QVQLKQSGAELVRPGTSVKLSCKASGYTLTDYYINWVKQRPGQGLEWIARIYPGNGNTYYNEKFKGKATLTAEKSSSTAYMQVSSLTSEDSAVYFCARGGSSVRVYYYAMDYWGQGTSVTVSS VL: DIQMNQSPSSLSASLGDTITITCHASQNINVWLSWYQQKPGNIPKLLIYKASNLHTGVTSRFSGSGSGTGFTLTISSLQPEDIATYYCQQGQSYPLTFGSGTKLEIK
binds	SCT-Fa194 (antibody, V domains shown, murine IgG) VH: QVQLRQSGAELVRPGTSVKLSCKASGYTLTDYYINWVKQRPGQGLEWIARIYPGNGNTYYNEKFKGKATLTAEKSSSTVNMQVSSLTSEDSAVYFCARGGSSDRIYYYAMDYWGQGTSVTVSS VL: DIQMNQSPSSLSASLGDTITITCHASQNINVWLSWYQQKPGNILKLLIYKASNLHTGVPSRFSGSGSGTGFTLTISSLQPEDIATYYCQQGQSYPLTFGSGTKLEIK
binds	SCT-Fa093 (antibody, V domains shown, murine IgG) VH: QVHLKQSGAELVRPGTSVKLSCKASGYTLTDYYINWVKQRPGQGLEWIARIYPGNGNTYYNEKFKGKATLTAEKSSSTVNMQVSSLTSEDSAVYFCARGGSSDRIYYYAMDYWGQGTSVTVSS VL: DIQMNQSPSSLSASLGDTITITCHASQNINVWLSWYQQKPGNIPKLLIYKASNLHTGVPSRFSGSGSGTGFTLTISSLQPEDIATYYCQQGQSYPLTFGSGTKLEIK
binds	SCT-Fa103 (antibody, V domains shown, murine IgG) VH: QVQLKQSGAELVRPGTSVKLSCKASGYTLTDYYINWVKQRPGQGLEWIARIYPGNGNTLYNAKFEGKATLTAERSSSTAYMQVSSLTSEDSAVYFCARGGSSVRVYYYAMDFWGQGTSVTVSS VL: DIQMNQSPSSLSASLGDTITITCHASQNINVWLSWYQQKPGNIPKLLIYKASNLHTGVPSRFSGSGSGTGFTLTISSLQPEDIATYYCQQGQSYPLTFGSGTKLEIK
binds	SCT-Fa019 (antibody, V domains shown, murine IgG) VH: EVKLVESEGGLVQPGSSMKLSCTASGFTFSDYYMSWVRQVPEKGLEWVANINFDGSGTYYLDSLKSRFIISRDNAKNILYLQMSSLRSEDTATYYCARLYDGSHDYWGQGSALTVSS VL: not shown
binds	SCT-Fa016 (antibody, V domains shown, murine IgG) VH: EVKLVESEGGLVQPGSSMKLSCTASGFTFSDYYMAWVRQVPEKGLEWVAHINFDGSGTYYLDSLKSRFIISRDNTKNILYLQLSSLKSEDTATYYCARLYDGSHDYWGQGTTLTVSS VL: not shown
binds	SCT-Fa011 (antibody, V domains shown, murine IgG) VH: EVKLVESEGGLVQPGSSMKLSCTASGFTFSDYYMAWVRQVPEKGLEWVAHINFDGSGTYYLDSLKSRFIISRDNAKNILYLQLSSLKSEDTATYYCARLYDGSHDYWGQGTTLTVSS VL: not shown

Further lines, the binder ahead of its results:

Binder	binding result
SCT-Fa107 (antibody, V domains shown, murine IgG) VH: QVQLKQSGAELVRPGTSVKLSCKASGYTLTDYYINWVKQRPGQGLEWIARIYPGNGNTYYNEKFKGKATLTAEKSSSTVNMQVSSLTSEDSAVYFCARGGSSDRIYYYAMDYWGQGTSVTVSS VL: DIQMNQSPSSLSASLGDTITITCHASQNINVWLSWYQQKPGNIPKLLIYKASNLHTGVPSRFSGSGSGTGFTLTISSLQPEDIATYYCQQGQSYPLTFGSGTKLEIK	binds
SCT-Fa109 (antibody, V domains shown, murine IgG) VH: QVQLKQSGAELVRPGTSVKLSCKASGYTLTDYYINWVKQRPGQGLEWIARIYPGNGNTYYNEKFKGKATLTAEKSSSTVNMQVTSLTSEDSAIYFCARGGSSDRIYYYAMDYWGQVTSVTVSS VL: DIQMNQSPSSLSASLGDTITITCHASQNINVWLSWYQQKPGNIPKLLIYKASNLHTGVPSRFSGSGSGTGFTLTISSLQPEDIATYYCQQGQSYPLTFGSGTKLEVK	binds
SCT-Fa101 (antibody, V domains shown, murine IgG) VH: QVQLKQSGAELVRPGTSVKLSCKASGYTLIDYYINWVKQRPGQGLEWIARIYPGNGNTYYNEKFKGKATLTAEKSSSTVNMQVSSLTSEDSAVYFCARGGSSDRIYYYAMDYWGQGTSVTVSS VL: DIQMNQSPSSLSASLGDTITITCHASQNINVWLSWYQQKPGNIPKLLIYKASNLHTGVPSRFSGSGSGTGFTLTISSLQPEDIATYYCQQGQSYPLTFGSGTKLEIK	binds
SCT-Fa102 (antibody, V domains shown, murine IgG) VH: QVQLKQSGAELVRPGTSVKLSCKASGYTLNDYYINWVKQRPGQGLEWIARIYPGNNNTYYNEKFKGKATLTAEKSSNTAYMQVSSLTSEDSAVYFCARGGSSVRVYYYAMDYWGQGTSVTVSS VL: DIQMNQSPSSLSASLGDTITITCHASQNINVWLSWYQQKPGNIPKLLIYKASNLHTGVPSRFSGSGSGTGFTLTISSLQPEDIATYYCQQGQSYPLTFGSGTKLEIK	binds
SCT-Fa105 (antibody, V domains shown, murine IgG) VH: QVQLKQSGAELVRPGTSVKLSCKASGYTLTDYYINWVKQRPGQGLEWIARIYPGNGNTYYNEKFKGKATLTAEKSSNTVNMQVSSLTSEDSAVYFCARGGSSDRIYYYAMDYWGQGTSVTVSS VL: DIQMNQSPSSLSASLGDTITITCHASQNINVWLSWYQQKPGDIPKLLIYKASNLHTGVPSRFSGSGSGTGFTLTISSLQPEDIATYYCQQGQSYPLTFGSGTKLEIK	binds
SCT-Fa100 (antibody, V domains shown, murine IgG) VH: QVQLKQSGAELVRPGTSVKLSCKASGYTLIDYYINWVKQRPGQGLEWIARIYPGNGNTYYNEKFKGKATLTAEKSSSTVNMQVSSLTSEDSAVYFCARGGSSDRIYYFAMDYWGQGTSVTVSS VL: DIQMNQSPSSLSASLGDTITITCHASQNINVWLSWYQQKPGNIPKLLIYKASNLHTGVPSRFSGSGSGTGFTLTISSLQPEDIATYYCQQGQSYPLTFGSGTKLEIK	binds
SCT-Fa110 (antibody, V domains shown, murine IgG) VH: QVQLKQSGAELVRPGTSVRLSCKASGYTLTDYYINWVKQRPGQGLEWIARIYPGNGNTYYNEKFKGKATLTAEKSSSTVNMQVTSLTSEDSAVYFCARGGSSDRIYYYAMDYWGQGTSVTVSS VL: DIQMNQSPSSLSASLGDTITITCHASQNINVWLSWYQQKPGNIPKLLIYKASNLHTGVPSRFSGSGSGTGFTLTISSLQPEDIATYYCQQGQSYPLTFGSGTKLEIK	binds
SCT-Fa097 (antibody, V domains shown, murine IgG) VH: QVQLKQSGAELVRPGTSVKLSCKASGYILTDYYINWVKQRPGQGLEWIARIYPGNGNTYYNEKFKGKATLTAEKSSSTVNMQVSSLTSEDSAVYFCARGGSSDRIYYYAMDHWGQGTSVTVSS VL: DIQMNQSPSSLSASLGDTINITCHASQNINVWLSWYQQKPGNIPKLLIYKASNLHTGVPLRFSGSGSGTGFTLTISSLQPEDIATYYCQQGQSYPLTFGSGTKLEIK	binds
SCT-Fa104 (antibody, V domains shown, murine IgG) VH: QVQLKQSGAELVRPGTSVKLSCKASGYTLTDYYINWVKQRPGQGLEWIARIYPGNGNTYYNEKFKCKATLTAEKSSSTVNMQVTSLTSEDSAIYFCARGGSSDRIYYYAMDYWGQGTSVTVSS VL: DIQMNQSPSSLSASLGDTITITCHASQNINVWLSWYQQKPGNIPKLLIYKASNLHTGVPSRFSGSGSGTGFTLTISSLQPEDIATYYCQQGQSYPLTFGSGTKLEVK	binds
SCT-Fa099 (antibody, V domains shown, murine IgG) VH: QVQLKQSGAELVRPGTSVKLSCKASGYILTDYYINWVKQRPGQGLEWIARIYPGNGNTYYNEKFKGKATLTAEKSSSTVNMQVSSLTSEDSAVYFCARGGSSDRIYYYAMDYWGQGTSVTVSS VL: DIQMNQSPSSLSASLGDTITITCHASQNINVWLSWYQQKPGNIPKLLIYKASNLHTGVPSRFSGSGSGTGFTLTISSLQPEDIATYYCQQGQSYPLTFGSGTKLEIK	binds
SCT-Fa012 (antibody, V domains shown, murine IgG) VH: EVKLVESEGGLVQPGSSMKLSCTASGFTFSDYYMAWVRQVPEKGLEWVAHINFDGSGTYYLDSLKSRFIISRDNAKNILYLQLSSLKSEDTATYYCARLYDGSHDYWGQGTTLTVSS VL: not shown	binds
SCT-Fa014 (antibody, V domains shown, murine IgG) VH: EVKLVESEGGLVQPGSSMKLSCTASGFTFSDYYMAWVRQVPEKGLEWVAHINFDGSGTYYLDSLKSRFIISRDNAKNILYLQLSSLKSEDTGTYYCARLYDGSHDYWGQGTTLTVSS VL: not shown	binds
SCT-Fa010 (antibody, V domains shown, murine IgG) VH: EVKLVESEGGLVQPGSSMKLSCTASGFTFSDYYMAWVRQVPEKGLEWIANINFDGSGTYYLDSLKSRFIISRDNAKNILYLQMSSLKSEDTATYYCARLYDGSLDYWGQGTTLTVSS VL: not shown	binds
SCT-Fa015 (antibody, V domains shown, murine IgG) VH: EVKLVESEGGLVQPGSSMKLSCTASGFTFSDYYMAWVRQVPEKGLEWVAHINFDGSGTYYLDSLKSRFIISRDNEKSILYLQLSSLKSEDTATYYCARLYDGSHDYWGQGTTLTVSS VL: not shown	binds
SCT-Fa017 (antibody, V domains shown, murine IgG) VH: EVKLVESEGGLVQPGSSMKLSCTASGFTFSDYYMAWVRQVPEKGLEWVANINFDGSGTYYLDSLKSRFIISRDNAKNILYLQMSSLKSEDTATYYCARLYDGSHDYWGQGTTLTVSS VL: not shown	binds
SCT-Fa013 (antibody, V domains shown, murine IgG) VH: EVKLVESEGGLVQPGSSMKLSCTASGFTFSDYYMAWVRQVPEKGLEWVAHINFDGSGTYYLDSLKSRFIISRDNAKNILYLQLSSLKSEDTGTYYCARLYDGSHDYWGQGTTLTVSS VL: not shown	binds
